From IntAct's records for PubMed 25910212

B1: Keratin, type II cytoskeletal 2 epidermal (Homo sapiens), P35908 (parent)
chain: MSCQISCKSRGRGGGGGGFRGFSSGSAVVSGGSRRSTSSFSCLSRHGGGGGGFGGGGFGSRSLVGLGGTKSISISVAGGGGGFGAAGGFGGRGGGFGGGSSFGGGSGFSGGGFGGGGFGGGRFGGFGGPGGVGGLGGPGGFGPGGYPGGIHEVSVNQSLLQPLNVKVDPEIQNVKAQEREQIKTLNNKFASFIDKVRFLEQQNQVLQTKWELLQQMNVGTRPINLEPIFQGYIDSLKRYLDGLTAERTSQNSELNNMQDLVEDYKKKYEDEINKRTAAENDFVTLKKDVDNAYMIKVELQSKVDLLNQEIEFLKVLYDAEISQIHQSVTDTNVILSMDNSRNLDLDSIIAEVKAQYEEIAQRSKEEAEALYHSKYEELQVTVGRHGDSLKEIKIEISELNRVIQRLQGEIAHVKKQCKNVQDAIADAEQRGEHALKDARNKLNDLEEALQQAKEDLARLLRDYQELMNVKLALDVEIATYRKLLEGEECRMSGDLSSNVTVSVTSSTISSNVASKAAFGGSGGRGSSSGGGYSSGSSSYGSGGRQSGSRGGSGGGGSISGGGYGSGGGSGGRYGSGGGSKGGSISGGGYGSGGGKHSSGGGSRGGSSSGGGYGSGGGGSSSVKGSSGEAFGSSVTFSFR
partner: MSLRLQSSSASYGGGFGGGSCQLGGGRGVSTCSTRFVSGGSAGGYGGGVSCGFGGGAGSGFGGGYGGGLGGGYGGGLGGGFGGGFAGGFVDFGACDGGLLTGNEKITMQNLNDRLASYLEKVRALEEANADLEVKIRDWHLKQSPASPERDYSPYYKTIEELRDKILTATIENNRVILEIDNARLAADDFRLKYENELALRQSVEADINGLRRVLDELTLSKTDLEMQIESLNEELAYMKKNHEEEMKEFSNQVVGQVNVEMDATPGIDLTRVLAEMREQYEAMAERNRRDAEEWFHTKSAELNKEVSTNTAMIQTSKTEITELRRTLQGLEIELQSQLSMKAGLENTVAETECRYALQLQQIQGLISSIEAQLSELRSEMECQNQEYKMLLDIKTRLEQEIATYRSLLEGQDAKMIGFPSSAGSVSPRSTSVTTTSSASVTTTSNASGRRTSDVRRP
B2: Zinc finger protein 41 (Homo sapiens), P51814-6 (parent)
chain: MAANGDSPPWSPALAAEGRGSSCEASVSFEDVTVDFSKEEWQHLDPAQRRLYWDVTLENYSHLLSVGYQIPKSEAAFKLEQGEGPWMLEGEAPHQSCSGEAIGKMQQQGIPGGIFFHCERFDQPIGEDSLCSILEELWQDNDQLEQRQENQNNLLSHVKVLIKERGYEHKNIEKIIHVTTKLVPSIKRLHNCDTILKHTLNSHNHNRNSATKNLGKIFGNGNNFPHSPSSTKNENAKTGANSCEHDHYEKHLSHKQAPTHHQKIHPEEKLYVCTECVMGFTQKSHLFEHQRIHAGEKSRECDKSNKVFPQKPQVDVHPSVYTGEKPYLCTQCGKVFTLKSNLITHQKIHTGQKPYKCSECGKAFFQRSDLFRHLRIHTGEKPYECSECGKGFSQNSDLSIHQKTHTGEKHYECNECGKAFTRKSALRMHQRIHTGEKPYVCADCGKAFIQKSHFNTHQRIHTGEKPYECSDCGKSFTKKSQLHVHQRIHTGEKPYICTECGKVFTHRTNLTTHQKTHTGEKPYMCAECGKAFTDQSNLIKHQKTHTGEKPYKCNGCGKAFIWKSRLKIHQKSHIGERHYECKDCGKAFIQKSTLSVHQRIHTGEKPYVCPECGKAFIQKSHFIAHHRIHTGEKPYECSDCGKCFTKKSQLRVHQKIHTGEKPNICAECGKAFTDRSNLITHQKIHTREKPYECGDCGKTFTWKSRLNIHQKSHTGERHYECSKCGKAFIQKATLSMHQIIHTGKKPYACTECQKAFTDRSNLIKHQKMHSGEKRYKASD
B3: U4/U6 small nuclear ribonucleoprotein Prp31 (Homo sapiens), Q8WWY3 (parent)
chain: MSLADELLADLEEAAEEEEGGSYGEEEEEPAIEDVQEETQLDLSGDSVKTIAKLWDSKMFAEIMMKIEEYISKQAKASEVMGPVEAAPEYRVIVDANNLTVEIENELNIIHKFIRDKYSKRFPELESLVPNALDYIRTVKELGNSLDKCKNNENLQQILTNATIMVVSVTASTTQGQQLSEEELERLEEACDMALELNASKHRIYEYVESRMSFIAPNLSIIIGASTAAKIMGVAGGLTNLSKMPACNIMLLGAQRKTLSGFSSTSVLPHTGYIYHSDIVQSLPPDLRRKAARLVAAKCTLAARVDSFHESTEGKVGYELKDEIERKFDKWQEPPPVKQVKPLPAPLDGQRKKRGGRRYRKMKERLGLTEIRKQANRMSFGEIEEDAYQEDLGFSLGHLGKSGSGRVRQTQVNEATKARISKTLQRTLQKQSVVYGGKSTIRDRSSGTASSVAFTPLQGLEIVNPQAAEKKVAEANQKYFSSMAEFLKVKGEKSGLMST
partner: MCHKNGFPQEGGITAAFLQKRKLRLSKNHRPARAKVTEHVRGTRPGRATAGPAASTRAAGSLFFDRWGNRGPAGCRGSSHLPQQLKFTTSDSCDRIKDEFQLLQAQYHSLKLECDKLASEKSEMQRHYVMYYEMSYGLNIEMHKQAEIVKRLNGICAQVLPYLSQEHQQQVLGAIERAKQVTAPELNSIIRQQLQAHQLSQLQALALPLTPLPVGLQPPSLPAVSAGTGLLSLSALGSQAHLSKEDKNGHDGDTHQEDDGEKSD
B4: Acetylcholine receptor subunit gamma (Homo sapiens), P07510-2 (parent)
chain: MHGGQGPLLLLLLLAVCLGAQGRNQEERLLADLMQNYDPNLRPAERDSDVVNVSLKLTLTNLISLNEREEALTTNVWIEMQWCDYRLRWDPRDYEGLWVLRVPSTMVWRPDIVLENKSQTYSTNEIDLQLSQEDGQTIEWIFIDPEAFTENGEWAIQHRPAKMLLDPAAPAQEAGHQKVVFYLLIQRKPLFYVINIIAPCVLISSVAILIHFLPAKAGGQKCTVAINVLLAQTVFLFLVAKKVPETSQAVPLISKYLTFLLVVTILIVVNAVVVLNVSLRSPHTHSMARGVRKVFLRLLPQLLRMHVRPLAPAAVQDTQSRLQNGSSGWSITTGEEVALCLPRSELLFQQWQRQGLVAAALEKLEKGPELGLSQFCGSLKQAAPAIQACVEACNLIACARHQQSHFDNGNEEWFLVGRVLDRVCFLAMLSLFICGTAGIFLMAHYNRVPALPFPGDPRPYLPSPD
partner: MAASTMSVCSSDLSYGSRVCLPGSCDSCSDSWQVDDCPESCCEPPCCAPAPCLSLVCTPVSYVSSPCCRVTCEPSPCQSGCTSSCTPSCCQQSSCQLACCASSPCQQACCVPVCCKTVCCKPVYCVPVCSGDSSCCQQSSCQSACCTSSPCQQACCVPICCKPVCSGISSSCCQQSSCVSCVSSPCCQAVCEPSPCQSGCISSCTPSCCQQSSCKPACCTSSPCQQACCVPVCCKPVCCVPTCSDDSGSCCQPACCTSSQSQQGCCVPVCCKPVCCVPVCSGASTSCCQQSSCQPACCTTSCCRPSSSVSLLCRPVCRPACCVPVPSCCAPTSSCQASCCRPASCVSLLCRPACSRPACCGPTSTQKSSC
B5: U4/U6 small nuclear ribonucleoprotein Prp31 (Homo sapiens), Q8WWY3 (parent)
chain: B3 chain
partner: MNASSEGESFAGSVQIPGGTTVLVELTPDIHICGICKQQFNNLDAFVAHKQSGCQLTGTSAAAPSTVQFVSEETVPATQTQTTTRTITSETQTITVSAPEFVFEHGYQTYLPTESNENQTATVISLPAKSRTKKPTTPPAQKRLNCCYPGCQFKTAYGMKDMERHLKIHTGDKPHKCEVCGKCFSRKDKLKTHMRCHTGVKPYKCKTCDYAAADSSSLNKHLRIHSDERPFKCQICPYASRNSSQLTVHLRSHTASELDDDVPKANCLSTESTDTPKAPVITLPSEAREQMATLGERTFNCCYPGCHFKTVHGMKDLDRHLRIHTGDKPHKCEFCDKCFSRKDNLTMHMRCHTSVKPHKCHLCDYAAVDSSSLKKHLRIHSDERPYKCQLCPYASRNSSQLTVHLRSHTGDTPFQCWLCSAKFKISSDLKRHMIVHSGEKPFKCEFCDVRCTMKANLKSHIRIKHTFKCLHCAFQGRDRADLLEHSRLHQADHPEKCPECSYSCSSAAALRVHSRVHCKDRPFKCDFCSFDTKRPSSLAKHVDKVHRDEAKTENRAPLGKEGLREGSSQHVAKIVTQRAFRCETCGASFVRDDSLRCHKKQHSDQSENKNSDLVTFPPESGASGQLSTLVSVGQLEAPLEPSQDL
B6: Progranulin (Homo sapiens), P28799 (parent)
chain: MWTLVSWVALTAGLVAGTRCPDGQFCPVACCLDPGGASYSCCRPLLDKWPTTLSRHLGGPCQVDAHCSAGHSCIFTVSGTSSCCPFPEAVACGDGHHCCPRGFHCSADGRSCFQRSGNNSVGAIQCPDSQFECPDFSTCCVMVDGSWGCCPMPQASCCEDRVHCCPHGAFCDLVHTRCITPTGTHPLAKKLPAQRTNRAVALSSSVMCPDARSRCPDGSTCCELPSGKYGCCPMPNATCCSDHLHCCPQDTVCDLIQSKCLSKENATTDLLTKLPAHTVGDVKCDMEVSCPDGYTCCRLQSGAWGCCPFTQAVCCEDHIHCCPAGFTCDTQKGTCEQGPHQVPWMEKAPAHLSLPDPQALKRDVPCDNVSSCPSSDTCCQLTSGEWGCCPIPEAVCCSDHQHCCPQGYTCVAEGQCQRGSEIVAGLEKMPARRASLSHPRDIGCDQHTSCPVGQTCCPSLGGSWACCQLPHAVCCEDRQHCCPAGYTCNVKARSCEKEVVSAQPATFLARSPHVGVKDVECGEGHFCHDNQTCCRDNRQGWACCPYRQGVCCADRRHCCPAGFRCAARGTKCLRREAPRWDAPLRDPALRQLL
partner: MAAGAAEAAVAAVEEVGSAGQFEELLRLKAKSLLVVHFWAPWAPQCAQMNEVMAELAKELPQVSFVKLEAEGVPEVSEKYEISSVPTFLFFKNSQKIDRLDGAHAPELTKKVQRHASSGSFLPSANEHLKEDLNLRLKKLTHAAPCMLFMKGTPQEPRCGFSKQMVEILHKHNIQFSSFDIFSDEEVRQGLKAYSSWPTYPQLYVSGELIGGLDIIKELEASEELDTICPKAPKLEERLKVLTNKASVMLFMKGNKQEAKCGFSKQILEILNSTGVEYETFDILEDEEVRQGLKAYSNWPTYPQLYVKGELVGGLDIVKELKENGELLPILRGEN

Variants of: B1
Details: with KRT13, P13646

Row | effect of a mutation on the interaction | Variant
1 | with no effect | G219D

Variants of: B2
Details: with fam9b_human FAM9B

Row | effect of a mutation on the interaction | Variant
2 | disrupting interaction strength | P111L
3 | with no effect | C301R
4 | with no effect | I125R

Variants of: B3
Details: with TLE5, Q08117-2

Row | effect of a mutation on the interaction | Variant
5 | with no effect | L107V

Variants of: B4
Details: with kr107_human KRTAP10-7, P60409

Row | effect of a mutation on the interaction | Variant
6 | disrupting interaction strength | R187C
7 | disrupting interaction strength | R86C
8 | disrupting interaction strength | V107G

Variants of: B5
Details: with zf64b_human ZFP64, Q9NTW7

Row | effect of a mutation on the interaction | Variant
9 | with no effect | L107V

Variants of: B6
Details: with glrx3_human GLRX3, O76003

Row | effect of a mutation on the interaction | Variant
10 | disrupting interaction strength | P451L
